Results reported in patent US20190309059A1 (SHANGHAI PHARMAEXPLORER, published 2019).
One block for each binder: values may come before it.

Columns and labels:
[1] = target: his-labeled human IL-13 (immunogen A) (human) (UniProt P35225); assay: FACS blocking, biotin-IL-13 on IL-13Ra1/IL-4Ra HEK293 cells; antibody at 0.01 nM
[2] = target: his-labeled human IL-13 (immunogen A) (human) (UniProt P35225); assay: ELISA, biotin-immunogen A; antibody at 0.02 nM
[3] = target: his-labeled human IL-13 (immunogen A) (human) (UniProt P35225); assay: FACS blocking, biotin-IL-13 on IL-13Ra2 HEK293 cells; antibody at 33.33 nM
[4] = target: his-labeled human IL-13 (immunogen A) (human) (UniProt P35225); assay: FACS blocking, biotin-IL-13 on IL-13Ra2 HEK293 cells; antibody at 0.05 nM
[5] = target: his-labeled human IL-13 (immunogen A) (human) (UniProt P35225); assay: FACS blocking, biotin-IL-13 on IL-13Ra1/IL-4Ra HEK293 cells; antibody at 166.67 nM
[6] = target: his-labeled human IL-13 (immunogen A) (human) (UniProt P35225); assay: FACS blocking, biotin-IL-13 on IL-13Ra1/IL-4Ra HEK293 cells; antibody at 0.002 nM
[7] = target: his-labeled human IL-13 (immunogen A) (human) (UniProt P35225); assay: FACS blocking, biotin-IL-13 on IL-13Ra1/IL-4Ra HEK293 cells; antibody at 1.33 nM
[8] = target: his-labeled human IL-13 (immunogen A) (human) (UniProt P35225); assay: FACS blocking, biotin-IL-13 on IL-13Ra2 HEK293 cells; antibody at 166.67 nM
[9] = target: his-labeled human IL-13 (immunogen A) (human) (UniProt P35225); assay: FACS blocking, biotin-IL-13 on IL-13Ra1/IL-4Ra HEK293 cells; antibody at 33.33 nM
[10] = target: cynomolgus IL-13 (purchased from sino biological) (cynomolgus) (UniProt Q0PW92); assay: ELISA, cynomolgus IL-13; antibody at 0.004 nM
[11] = target: his-labeled human IL-13 (immunogen A) (human) (UniProt P35225); assay: FACS blocking, biotin-IL-13 on IL-13Ra2 HEK293 cells; antibody at 6.67 nM
[12] = target: his-labeled human IL-13 (immunogen A) (human) (UniProt P35225); assay: cell-based or functional assay
[13] = target: cynomolgus IL-13 (purchased from sino biological) (cynomolgus) (UniProt Q0PW92); assay: ELISA, cynomolgus IL-13; antibody at 0.021 nM
[14] = target: his-labeled human IL-13 (immunogen A) (human) (UniProt P35225); assay: FACS blocking, biotin-IL-13 on IL-13Ra1/IL-4Ra HEK293 cells; antibody at 0.05 nM
[15] = target: cynomolgus IL-13 (purchased from sino biological) (cynomolgus) (UniProt Q0PW92); assay: ELISA, cynomolgus IL-13; antibody at 0.53 nM
[16] = target: his-labeled human IL-13 (immunogen A) (human) (UniProt P35225); assay: FACS blocking, biotin-IL-13 on IL-13Ra2 HEK293 cells; antibody at 0.01 nM
[17] = target: his-labeled human IL-13 (immunogen A) (human) (UniProt P35225); assay: FACS blocking, biotin-IL-13 on IL-13Ra2 HEK293 cells; antibody at 1.33 nM
[18] = target: his-labeled human IL-13 (immunogen A) (human) (UniProt P35225); assay: ELISA, biotin-immunogen A; antibody at 0.11 nM
[19] = target: cynomolgus IL-13 (purchased from sino biological) (cynomolgus) (UniProt Q0PW92); assay: ELISA, cynomolgus IL-13; antibody at 2.67 nM
[20] = target: his-labeled human IL-13 (immunogen A) (human) (UniProt P35225); assay: FACS blocking, biotin-IL-13 on IL-13Ra1/IL-4Ra HEK293 cells; antibody at 6.67 nM
[21] = target: his-labeled human IL-13 (immunogen A) (human) (UniProt P35225); assay: FACS blocking, biotin-IL-13 on IL-13Ra1/IL-4Ra HEK293 cells; antibody at 0.27 nM
[22] = target: his-labeled human IL-13 (immunogen A) (human) (UniProt P35225); assay: FACS blocking, biotin-IL-13 on IL-13Ra2 HEK293 cells; antibody at 0.002 nM
[23] = target: his-labeled human IL-13 (immunogen A) (human) (UniProt P35225); assay: SPR (Biacore)
[24] = target: his-labeled human IL-13 (immunogen A) (human) (UniProt P35225); assay: FACS blocking, biotin-IL-13 on IL-13Ra2 HEK293 cells; antibody at 0.27 nM
[25] = target: his-labeled human IL-13R130Q variant (human) (UniProt P35225); assay: ELISA, IL-13R130Q variant; antibody at 0.11 nM
[26] = target: his-labeled human IL-13R130Q variant (human) (UniProt P35225); assay: ELISA, IL-13R130Q variant; antibody at 0.004 nM
[27] = target: his-labeled human IL-13R130Q variant (human) (UniProt P35225); assay: ELISA, IL-13R130Q variant; antibody at 2.67 nM

Chain of cynomolgus IL-13 (purchased from sino biological) (cynomolgus) (Q0PW92 entry or part of it): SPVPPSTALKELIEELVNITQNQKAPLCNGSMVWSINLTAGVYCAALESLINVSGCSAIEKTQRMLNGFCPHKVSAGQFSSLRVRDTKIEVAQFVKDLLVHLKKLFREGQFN
Chain of his-labeled human IL-13R130Q variant (human) (P35225 other isoform, or with tags, fused parts or gaps mutant): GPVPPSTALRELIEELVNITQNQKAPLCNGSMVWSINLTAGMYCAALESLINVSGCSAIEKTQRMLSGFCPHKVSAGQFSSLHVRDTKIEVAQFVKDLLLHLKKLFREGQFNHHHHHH

mean fluorescence intensity [1]: 102 | OD450 nm [2]: 0.25 | mean fluorescence intensity [3]: 64.8 | mean fluorescence intensity [4]: 97.8 | mean fluorescence intensity [5]: 51.2 | mean fluorescence intensity [6]: 102 | mean fluorescence intensity [7]: 76.6 | mean fluorescence intensity [8]: 58 | mean fluorescence intensity [9]: 61.9 | OD450 nm [10]: 0.073 | mean fluorescence intensity [11]: 65.7 | Periostin (pg/mL), MRCS cells + IL-13 5 ng/mL; antibody at 0.0002 nM [12]: 7090 pg/mL | Periostin (pg/mL), MRCS cells + IL-13 5 ng/mL; antibody at 0.001 nM [12]: 6350 pg/mL | Periostin (pg/mL), MRCS cells + IL-13 5 ng/mL; antibody at 0.004 nM [12]: 5500 pg/mL | Periostin (pg/mL), MRCS cells + IL-13 5 ng/mL; antibody at 0.021 nM [12]: 4920 pg/mL | Periostin (pg/mL), MRCS cells + IL-13 5 ng/mL; antibody at 0.11 nM [12]: 4130 pg/mL | Periostin (pg/mL), MRCS cells + IL-13 5 ng/mL; antibody at 0.53 nM [12]: 1650 pg/mL | Periostin (pg/mL), MRCS cells + IL-13 5 ng/mL; antibody at 2.67 nM [12]: 1100 pg/mL | Periostin (pg/mL), MRCS cells + IL-13 5 ng/mL; antibody at 13.3 nM [12]: 1160 pg/mL | VCAM-1 fluorescence intensity, HUVEC + IL-13 0.5 ng/mL + TNFα; antibody at 0.0002 nM [12]: 379 | VCAM-1 fluorescence intensity, HUVEC + IL-13 0.5 ng/mL + TNFα; antibody at 0.001 nM [12]: 346 | VCAM-1 fluorescence intensity, HUVEC + IL-13 0.5 ng/mL + TNFα; antibody at 0.004 nM [12]: 395 | VCAM-1 fluorescence intensity, HUVEC + IL-13 0.5 ng/mL + TNFα; antibody at 0.021 nM [12]: 404 | VCAM-1 fluorescence intensity, HUVEC + IL-13 0.5 ng/mL + TNFα; antibody at 0.11 nM [12]: 278 | VCAM-1 fluorescence intensity, HUVEC + IL-13 0.5 ng/mL + TNFα; antibody at 0.53 nM [12]: 227 | VCAM-1 fluorescence intensity, HUVEC + IL-13 0.5 ng/mL + TNFα; antibody at 2.67 nM [12]: 224 | VCAM-1 fluorescence intensity, HUVEC + IL-13 0.5 ng/mL + TNFα; antibody at 13.3 nM [12]: 207 | OD450 nm [13]: 0.085 | mean fluorescence intensity [14]: 95.6 | OD450 nm [15]: 0.54 | mean fluorescence intensity [16]: 99.1 | mean fluorescence intensity [17]: 77.7 | OD450 nm [18]: 0.83 | OD450 nm [19]: 1.34 | mean fluorescence intensity [20]: 65.2 | mean fluorescence intensity [21]: 93 | mean fluorescence intensity [22]: 102 | Kd [23]: < 90 nM | mean fluorescence intensity [24]: 92.9
B1: c28A2E11 (mouse-human chimeric IL-13 antibody) (antibody, V domains shown)
VH: EVQLQQSGAELVKPGASVKLSCTASGFNIKDYYMHWVKQRTEQGLEWIGRIDPEDGETKYAPKFHDKATLTADTSSNTAYLQFSSLASEDTAVYYCTRYDYYGPFAYWGQGTLVTVSA
VL: QAVVTQESVLTTSPGETVTLTCRSSTGAVTTSNYANWVQEKPDHLFTGLIGGTNNRAPGVPARFSGSLIGDKAALTITGAQTEDEAIYFCALWYINHFIFGSGTKVTVL

mean fluorescence intensity [1]: 96.8 | OD450 nm [25]: 0.97 | OD450 nm [2]: 0.18 | mean fluorescence intensity [3]: 20.3 | mean fluorescence intensity [4]: 90 | mean fluorescence intensity [5]: 18.7 | mean fluorescence intensity [6]: 102 | mean fluorescence intensity [7]: 33.1 | mean fluorescence intensity [8]: 19.3 | mean fluorescence intensity [9]: 19.6 | OD450 nm [10]: 0.061 | OD450 nm [26]: 0.13 | mean fluorescence intensity [11]: 22.2 | Periostin (pg/mL), MRCS cells + IL-13 5 ng/mL; antibody at 0.0002 nM [12]: 7100 pg/mL | Periostin (pg/mL), MRCS cells + IL-13 5 ng/mL; antibody at 0.001 nM [12]: 6020 pg/mL | Periostin (pg/mL), MRCS cells + IL-13 5 ng/mL; antibody at 0.004 nM [12]: 4870 pg/mL | Periostin (pg/mL), MRCS cells + IL-13 5 ng/mL; antibody at 0.021 nM [12]: 4480 pg/mL | Periostin (pg/mL), MRCS cells + IL-13 5 ng/mL; antibody at 0.11 nM [12]: 4360 pg/mL | Periostin (pg/mL), MRCS cells + IL-13 5 ng/mL; antibody at 0.53 nM [12]: 4460 pg/mL | Periostin (pg/mL), MRCS cells + IL-13 5 ng/mL; antibody at 2.67 nM [12]: 2850 pg/mL | Periostin (pg/mL), MRCS cells + IL-13 5 ng/mL; antibody at 13.3 nM [12]: 1350 pg/mL | TARC (pg/mL), A549 cells + IL-13 + TNFα; antibody at 0.001 nM [12]: 3200 pg/mL | TARC (pg/mL), A549 cells + IL-13 + TNFα; antibody at 0.004 nM [12]: 3150 pg/mL | TARC (pg/mL), A549 cells + IL-13 + TNFα; antibody at 0.021 nM [12]: 3040 pg/mL | TARC (pg/mL), A549 cells + IL-13 + TNFα; antibody at 0.11 nM [12]: 2610 pg/mL | TARC (pg/mL), A549 cells + IL-13 + TNFα; antibody at 0.53 nM [12]: 2370 pg/mL | TARC (pg/mL), A549 cells + IL-13 + TNFα; antibody at 2.67 nM [12]: 1090 pg/mL | TARC (pg/mL), A549 cells + IL-13 + TNFα; antibody at 13.3 nM [12]: 227 pg/mL | TARC (pg/mL), A549 cells + IL-13 + TNFα; antibody at 66.7 nM [12]: 54 pg/mL | VCAM-1 fluorescence intensity, HUVEC + IL-13 0.5 ng/mL + TNFα; antibody at 0.0002 nM [12]: 408 | VCAM-1 fluorescence intensity, HUVEC + IL-13 0.5 ng/mL + TNFα; antibody at 0.001 nM [12]: 402 | VCAM-1 fluorescence intensity, HUVEC + IL-13 0.5 ng/mL + TNFα; antibody at 0.004 nM [12]: 452 | VCAM-1 fluorescence intensity, HUVEC + IL-13 0.5 ng/mL + TNFα; antibody at 0.021 nM [12]: 408 | VCAM-1 fluorescence intensity, HUVEC + IL-13 0.5 ng/mL + TNFα; antibody at 0.11 nM [12]: 313 | VCAM-1 fluorescence intensity, HUVEC + IL-13 0.5 ng/mL + TNFα; antibody at 0.53 nM [12]: 299 | VCAM-1 fluorescence intensity, HUVEC + IL-13 0.5 ng/mL + TNFα; antibody at 2.67 nM [12]: 238 | VCAM-1 fluorescence intensity, HUVEC + IL-13 0.5 ng/mL + TNFα; antibody at 13.3 nM [12]: 165 | OD450 nm [13]: 0.136 | mean fluorescence intensity [14]: 96.7 | OD450 nm [15]: 0.59 | mean fluorescence intensity [16]: 98.1 | OD450 nm [27]: 3.1 | mean fluorescence intensity [17]: 29 | OD450 nm [18]: 0.59 | OD450 nm [19]: 1.63 | mean fluorescence intensity [20]: 19.5 | mean fluorescence intensity [21]: 81.5 | mean fluorescence intensity [22]: 99.1 | Kd [23]: < 90 nM | mean fluorescence intensity [24]: 63.8
B2: c35E2C3 (mouse-human chimeric IL-13 antibody) (antibody, V domains shown)
VH: EVQLQESGPGLAKPSQTLSLTCSVTGYSITSDYWNWIRKFPGNKLEYMGYISYNGNTYYNPSLKSQISITRDTSKNQLYLQLKSATTEDTATYYCARLAKWTWYFDIWGTGTTVTVSS
VL: DIQMNQSPSSLSASLGDTITITCHASQNINVWLSWYQQKPGSLPKLLIYKASDLHTGVPSRFSGSGSGTGFTLTISSLQPEDIATYYCQQGQSYPYTFGGGTKLEIK
